Experimental findings from patent US20130115678 are described below.

Holding throughout (assay): cleavage_in_vitro
For data set [1], the system named is T1, SbfI (Streptomyces species Bf-61).
T1 sequence: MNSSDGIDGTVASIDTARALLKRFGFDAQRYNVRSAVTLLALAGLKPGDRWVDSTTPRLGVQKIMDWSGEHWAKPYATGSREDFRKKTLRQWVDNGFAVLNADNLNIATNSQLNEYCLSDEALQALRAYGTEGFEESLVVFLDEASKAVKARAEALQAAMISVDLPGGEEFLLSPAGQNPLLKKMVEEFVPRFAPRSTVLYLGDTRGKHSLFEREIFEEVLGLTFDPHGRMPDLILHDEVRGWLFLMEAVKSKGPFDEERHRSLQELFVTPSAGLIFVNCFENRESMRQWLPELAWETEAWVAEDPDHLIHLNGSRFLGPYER
The conditions noted are these: NEB4, 37 C, Mg2+; FI NEB1-3: 32, 8, 8.

Data set [2] concerns T2, SspI-HF Y98F (Sphaerotilus species).
T2 sequence: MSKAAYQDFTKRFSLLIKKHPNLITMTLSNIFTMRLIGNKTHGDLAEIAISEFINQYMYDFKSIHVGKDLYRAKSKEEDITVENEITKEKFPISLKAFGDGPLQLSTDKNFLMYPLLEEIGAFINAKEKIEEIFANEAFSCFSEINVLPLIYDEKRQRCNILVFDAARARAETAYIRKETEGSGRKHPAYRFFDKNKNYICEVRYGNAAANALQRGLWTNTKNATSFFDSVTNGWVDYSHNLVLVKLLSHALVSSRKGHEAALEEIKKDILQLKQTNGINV
The conditions noted are these: NEB4, 37 C, Mg2+; FI NEB1-3: >=4000, 120, >=32.

The target in data set [3] is T3, BamHI (Bacillus amyloliquefaciens) (UniProt P23940).
T3 sequence: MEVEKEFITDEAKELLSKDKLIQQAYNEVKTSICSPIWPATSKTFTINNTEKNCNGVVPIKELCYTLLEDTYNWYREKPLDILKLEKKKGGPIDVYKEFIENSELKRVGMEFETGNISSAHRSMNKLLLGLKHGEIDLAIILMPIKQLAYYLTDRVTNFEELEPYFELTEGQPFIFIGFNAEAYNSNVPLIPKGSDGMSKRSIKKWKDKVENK
The settings on record: NEB4, 37 C, Mg2+; FI NEB1-3: 4, 4, 32.

Data set [4] deals with EcoRI-HF K62E (Escherichia coli RY13) (UniProt P00642). The settings on record: NEB4, 37 C, Mg2+; FI NEB1-3: 2000, 4000, 250.
The subject of data set [5] is T4, SapI (Saccharopolyspora sp.).
T4 sequence: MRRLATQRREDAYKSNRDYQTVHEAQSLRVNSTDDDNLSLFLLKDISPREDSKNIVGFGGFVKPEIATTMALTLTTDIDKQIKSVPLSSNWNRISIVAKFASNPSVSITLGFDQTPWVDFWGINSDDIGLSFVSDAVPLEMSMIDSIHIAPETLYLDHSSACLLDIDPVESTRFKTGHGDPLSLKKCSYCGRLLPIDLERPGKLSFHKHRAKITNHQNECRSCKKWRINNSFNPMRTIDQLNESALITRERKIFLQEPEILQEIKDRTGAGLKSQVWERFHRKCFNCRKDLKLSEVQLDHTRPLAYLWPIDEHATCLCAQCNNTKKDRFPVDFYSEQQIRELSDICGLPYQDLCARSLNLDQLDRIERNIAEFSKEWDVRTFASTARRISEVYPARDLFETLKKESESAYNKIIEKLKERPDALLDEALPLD
The conditions noted are these: NEB4, 37 C, Mg2+; FI NEB1-3: 16, 64, 32.

Data set [6] has as its system T5, NcoI (Nocardia corallina).
T5 sequence: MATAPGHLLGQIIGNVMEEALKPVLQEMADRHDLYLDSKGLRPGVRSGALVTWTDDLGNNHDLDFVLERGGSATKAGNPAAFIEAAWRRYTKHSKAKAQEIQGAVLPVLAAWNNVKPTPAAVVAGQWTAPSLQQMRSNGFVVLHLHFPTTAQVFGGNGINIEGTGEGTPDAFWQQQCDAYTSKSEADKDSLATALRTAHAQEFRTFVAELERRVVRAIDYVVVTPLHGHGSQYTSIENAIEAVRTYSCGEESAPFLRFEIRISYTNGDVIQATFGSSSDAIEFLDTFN
The conditions noted are these: NEB4, 37 C, Mg2+; FI NEB1-3: 120, 32, 120.

Data set [7] deals with T6, HindIII (Haemophilus influenzae Rd) (UniProt P43870).
T6 sequence: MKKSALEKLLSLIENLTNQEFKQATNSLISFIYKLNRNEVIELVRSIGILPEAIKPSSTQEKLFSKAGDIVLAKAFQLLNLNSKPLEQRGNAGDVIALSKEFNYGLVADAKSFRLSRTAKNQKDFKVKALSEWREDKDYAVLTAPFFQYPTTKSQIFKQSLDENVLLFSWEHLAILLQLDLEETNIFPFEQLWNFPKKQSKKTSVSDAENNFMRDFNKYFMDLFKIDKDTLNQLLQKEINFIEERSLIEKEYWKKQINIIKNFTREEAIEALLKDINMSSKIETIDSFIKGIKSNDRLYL
The conditions noted are these: NEB4, 37 C, Mg2+; FI NEB1-3: 32, 250, 4000.

The test system of data set [8] is T7, BsmBI (Bacillus stearothermophilus).
T7 sequence: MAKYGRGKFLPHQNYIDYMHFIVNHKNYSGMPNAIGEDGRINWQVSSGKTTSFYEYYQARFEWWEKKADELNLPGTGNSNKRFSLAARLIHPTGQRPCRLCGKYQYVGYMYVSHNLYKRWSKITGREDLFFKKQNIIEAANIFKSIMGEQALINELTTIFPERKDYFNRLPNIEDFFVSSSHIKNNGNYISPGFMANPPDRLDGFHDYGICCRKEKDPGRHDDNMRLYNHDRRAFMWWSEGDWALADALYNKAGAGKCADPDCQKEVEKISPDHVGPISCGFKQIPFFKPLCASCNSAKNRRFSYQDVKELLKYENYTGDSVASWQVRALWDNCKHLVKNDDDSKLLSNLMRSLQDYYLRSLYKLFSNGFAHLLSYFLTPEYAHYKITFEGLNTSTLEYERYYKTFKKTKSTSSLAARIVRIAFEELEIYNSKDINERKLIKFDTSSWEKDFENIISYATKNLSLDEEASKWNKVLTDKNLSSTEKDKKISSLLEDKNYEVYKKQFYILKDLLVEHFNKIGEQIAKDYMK
The conditions noted are these: NEB4, 55 C, Mg2+; FI NEB1-3: 1, 8, 120.

For the substance lambda phage DNA, the activity (fidelity index) is 8 in data set [1]; 500 in data set [2]; 4 in data set [3]; 16000 in data set [4]; 16 in data set [5]; 32 in data set [6]. The activity (fidelity index) amounted to 32 in data set [7] and 4 in data set [8].
